Assays:
L7Ae = L7Ae (UniProt O29494); conditions: RNA microarray, 5 nM L7Ae
Lin28A = target: T1, Lin28A (UniProt Q9H9Z2); experiment: pulldown; conditions: TALON beads, 4 C
T1 sequence: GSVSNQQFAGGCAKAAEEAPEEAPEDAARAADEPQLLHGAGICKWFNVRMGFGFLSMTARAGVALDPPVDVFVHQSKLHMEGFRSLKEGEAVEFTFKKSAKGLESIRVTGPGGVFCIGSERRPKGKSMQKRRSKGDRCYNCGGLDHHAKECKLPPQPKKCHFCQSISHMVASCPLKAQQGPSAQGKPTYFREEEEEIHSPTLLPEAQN

U1A (Homo sapiens) = U1A (Homo sapiens) (UniProt P09012); experiment: pulldown; conditions: TALON beads, 4 C
Sequence of U1A (Homo sapiens) (P09012 2-282): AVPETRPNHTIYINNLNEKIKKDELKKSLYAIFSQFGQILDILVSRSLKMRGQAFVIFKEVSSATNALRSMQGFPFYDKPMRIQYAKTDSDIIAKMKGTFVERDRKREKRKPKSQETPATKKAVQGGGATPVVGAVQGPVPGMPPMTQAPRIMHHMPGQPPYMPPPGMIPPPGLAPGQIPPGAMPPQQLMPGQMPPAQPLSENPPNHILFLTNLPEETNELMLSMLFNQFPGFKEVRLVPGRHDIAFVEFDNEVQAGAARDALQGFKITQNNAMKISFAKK

Sequence of L7Ae (O29494 whole entry): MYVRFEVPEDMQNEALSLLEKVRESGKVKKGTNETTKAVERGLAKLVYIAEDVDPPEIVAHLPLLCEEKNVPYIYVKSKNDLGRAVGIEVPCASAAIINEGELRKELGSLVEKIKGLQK

Substance	binding signal (Cy5 intensity) (Lin28A)	binding signal (Cy5 intensity) (U1A (Homo sapiens))	further results
hsa-mir-1-2 loop	–	–	binding signal (log2 Cy3-Cy5+20) (L7Ae): 11.3
hsa-mir-16-2 loop	–	–	binding signal (log2 Cy3-Cy5+20) (L7Ae): 11.5
hsa-mir-34a loop	–	–	binding signal (log2 Cy3-Cy5+20) (L7Ae): 11.3
hsa-mir-98 loop	6.41	–	–
hsa-mir-204 loop	–	–	binding signal (log2 Cy3-Cy5+20) (L7Ae): 11.7
hsa-mir-363 loop	–	–	binding signal (log2 Cy3-Cy5+20) (L7Ae): 12.5
hsa-mir-378c loop	–	8.37	–
hsa-mir-412 loop	–	8.95	–
hsa-mir-422a loop	–	8.78	–
hsa-mir-493 loop	–	8.41	–
hsa-mir-598 loop	6.47	–	–
hsa-mir-637 loop	–	8.4	–
hsa-mir-638 loop	6.27	–	–
hsa-mir-658 loop	–	8.27	–
hsa-mir-940 loop	6.33	–	–
hsa-mir-1233-1 loop	6.55	–	–
hsa-mir-1233-2 loop	6.43	–	–
hsa-mir-1273h loop	–	8.2	–
hsa-mir-1302-6 loop	–	8.55	–
hsa-mir-2682 loop	–	8.27	–
hsa-mir-3661 loop	–	9.05	–
hsa-mir-4296 loop	6.29	–	–
hsa-mir-4315-2 loop	–	8.28	–

Substance	binding signal (Cy5 intensity) (Lin28A)	binding signal (Cy5 intensity) (U1A (Homo sapiens))	further results
hsa-mir-4453 loop	6.54	–	–
hsa-mir-4479 loop	–	–	binding signal (log2 Cy3-Cy5+20) (L7Ae): 11.3
hsa-mir-4499 loop	–	8.28	–
hsa-mir-4524b loop	6.33	–	–
hsa-mir-4723 loop	–	8.48	–
hsa-mir-4730 loop	6.28	–	–
hsa-mir-5004 loop	6.38	–	–
hsa-mir-5196 loop	–	8.67	–
hsa-mir-6758 loop	6.35	–	–
hsa-mir-6773 loop	–	–	binding signal (log2 Cy3-Cy5+20) (L7Ae): 11.3
hsa-mir-6775 loop	6.44	–	–
hsa-mir-6796 loop	–	8.72	–
hsa-mir-6807 loop	–	8.28	–
hsa-mir-6834 loop	–	–	binding signal (log2 Cy3-Cy5+20) (L7Ae): 11.5
hsa-mir-6839 loop	6.39	–	–
hsa-mir-6845 loop	–	9.06	–
hsa-mir-6884 loop	6.37	–	–
hsa-mir-7848 loop	–	8.69	–
mmu-mir-466p loop	–	–	binding signal (log2 Cy3-Cy5+20) (L7Ae): 13.3
mmu-mir-6338 loop	–	–	binding signal (log2 Cy3-Cy5+20) (L7Ae): 11.6
mmu-mir-6995 loop	–	–	binding signal (log2 Cy3-Cy5+20) (L7Ae): 12.2
mmu-mir-7061 loop	–	–	binding signal (log2 Cy3-Cy5+20) (L7Ae): 11.8
mmu-mir-7220 loop	–	–	binding signal (log2 Cy3-Cy5+20) (L7Ae): 11.5
